Test results reported in PMC3207290 (The Journal of Cell Biology, 2011).

Biological target: F-actin (polymerized rabbit muscle G-actin) (rabbit, UniProt P68135 1-377)
Assay: co-sedimentation

- Kd: 809 ± 245 nM
B1: bovine GRK5-Flag (enzyme)
chain: MELENIVANTVLLKAREGGGGKRKGKSKKWKEILKFPHINQCEDLRRTIDRDYCSLCDKQPVGRLLFRQFCETRPGLESYIQFLDSVAEYEVTPDEKLGEKGKEIMTKYLTPKSPVFITQVGRDLVSQTEEKLLQKPCKELFSACVQSVHDYLRGEPFHEYLDSMYFDRFLQWKWLERQPVTKNTFRQYRVLGKGGFGEVCACQVRATGKMYACKRLEKKRIKKRKGESMALNEKQILEKVNSRFVVNLAYAYETKDALCLVLTIMNGGDLKFHIYNMGNPGFEEERALFYAAEILCGLEDLHHENIVYRDLKPENILLDDYGHIRISDLGLAVKIPEGDLIRGRVGTVGYMAPEVLNNQRYGLSPDYWGLGCLIYEMIEGQSPFRGRKEKVKREEVDRRVLETEEVYSHKFSEEAKSICKMLLTKDAKQRLGCQEEGAAEVKRHPFFRNMNFKRLEAGMLDPPFVPDPRAVYCKDVLDIEQFSTVKGVNLDHTDDDFYSKFSTGSVPIPWQSEMIETECFKELNVFGPHGTLSPDLNRSHPPEPPKKGLLQRLFKRQHQNNSKSSPNSKTSFNHHINSNHVSSNSTGSS
